Assay results taken from patent US20260021193A1 (IMMUNOME, published 2026).

Columns and labels:
[1] = target: T1, human ROR-1 endogenously expressed on JeKo-1 and MDA-MB-468 cells (human, UniProt Q01973 30-937); test: cell-based or functional assay
[2] = target: T1, human ROR-1 endogenously expressed on …; test: cell-based or functional assay; remark: listed apart in the source
[3] = target: T1, human ROR-1 endogenously expressed on …; test: flow cytometry (cellular binning): titration of the antibody on MDA-MB-468 cells, fluorescently labeled secondary antibody, % Top MFI
Procedure: (§1) Next, the anti-ROR-1 antibodies were fluorescently labeled with a secondary antibody.
(§2) In Step 2, a fluorescently labeled secondary antibody recognizing the novel antibodies was incubated with the samples.

[4] = target: T1, human ROR-1 endogenously expressed on …; test: as above; remark: listed apart in the source
Procedure: as §1, §2

[5] = target: T1, human ROR-1 endogenously expressed on …; test: flow cytometry competition (cellular binning) on MDA-MB-468 cells: cells coated with titrated ATX-P-875, then a saturating dose of the labeled competitor 4A5-PE, whose signal is plotted in % Top MFI
Procedure: as §1, §2

Mouse ROR1 - His = target: T2, Mouse ROR1 - His (Mouse, UniProt Q9Z139 30-403, limits assumed); test: SPR, purified Mouse ROR1-His
T2 construct: Purified His-tagged mouse ROR1 protein used in SPR; not shown: His tag
T2 sequence (Q9Z139 30-403 limits assumed): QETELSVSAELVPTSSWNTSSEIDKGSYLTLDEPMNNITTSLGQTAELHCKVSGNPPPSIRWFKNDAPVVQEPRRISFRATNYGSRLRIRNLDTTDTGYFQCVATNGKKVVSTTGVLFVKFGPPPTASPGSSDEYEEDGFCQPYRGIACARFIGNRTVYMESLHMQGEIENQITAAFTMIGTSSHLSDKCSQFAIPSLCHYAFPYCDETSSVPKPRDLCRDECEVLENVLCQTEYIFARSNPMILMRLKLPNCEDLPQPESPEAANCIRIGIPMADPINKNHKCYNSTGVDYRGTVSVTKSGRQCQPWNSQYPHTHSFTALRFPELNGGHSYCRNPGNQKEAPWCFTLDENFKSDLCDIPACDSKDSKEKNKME

Hu/Cy/Rh ROR1 - His [6] = target: T3, Hu/Cy/Rh ROR1 - His (Human/Cyno/Rhesus, UniProt Q01973 30-403, limits assumed); test: SPR, purified Hu/Cy/Rh ROR1-His
T3 construct: Purified His-tagged ROR1 protein used in SPR; also called Human/Cyno/Rhesus ROR-1; not shown: His tag

[7] = target: T1, human ROR-1 endogenously expressed on …; test: flow cytometry: titration of the antibody on ROR-1 positive JeKo-1 cells, secondary antibody staining, Net MFI
Procedure: Cells were washed, stained with secondary antibody and cell binding saturation was detected by flow cytometry and reported as mean fluorescent intensity (MFI).
A cell binding saturation assay was developed to evaluate how well the anti-ROR-1 antibodies developed in Example 22 bound to endogenously expressed extracellular ROR-1 protein on cell lines. […] Cells were then washed and subjected to secondary antibody staining and detection by flow cytometry. Mean fluorescence (MFI) was determined by analysis on cytometer software. […] (See FIGS. 27A-27B).

[8] = target: T1, human ROR-1 endogenously expressed on …; test: flow cytometry (cellular binning): titration of the antibody on MDA-MB-468 cells, fluorescently labeled secondary antibody, % Top MFI; remark: listed apart in the source
Procedure: as §1, §2

[9] = target: T1, human ROR-1 endogenously expressed on …; test: flow cytometry competition (cellular binning) on MDA-MB-468 cells: cells coated with titrated ATX-P-885, then a saturating dose of the labeled competitor Dy650-UC961, whose signal is plotted in % Top MFI
Procedure: as §1, §2

Hu/Cy/Rh ROR1 - His [10] = target: T3, Hu/Cy/Rh ROR1 - His; test: SPR (Carterra), cell 'Kinetics (KD)' in the head and in the left column of the binning table, antigen Hu/Cy/Rh ROR1-His; no unit stands on the sheet, M is taken from Table 3, where the same KD values of the other four antibodies stand under KD (M)
[11] = target: T1, human ROR-1 endogenously expressed on …; test: flow cytometry: titration of the antibody on ROR-1 positive JeKo-1 cells, secondary antibody staining, Net MFI; remark: listed apart in the source

Binder	ROR-1 receptor internalization on JeKo-1 and MDA-MB-468 cells (reduction of surface antibody over 4 hours, flow cytometry) [1]	JeKo-1 (%) cellular internalization [2]	MDA-MB-468(%) cellular internalization [2]	EC50 (read off the curve) [3]	EC50 (read off the curve) [4]	IC50 (read off the curve) [5]	Kd (Mouse ROR1 - His)	koff (Mouse ROR1 - His)	kon (Mouse ROR1 - His)	Kd (Hu/Cy/Rh ROR1 - His [6])	koff (Hu/Cy/Rh ROR1 - His [6])	kon (Hu/Cy/Rh ROR1 - His [6])	EC50 (read off the curve) [7]	EC50 (read off the curve) [8]	IC50 (read off the curve) [9]	Kd (Hu/Cy/Rh ROR1 - His [10])	EC50 (read off the curve) [11]
ATX-P-875 (antibody, V domains shown) VH: not shown VL: DIQMTQSPSSLSASVGDRVTITCRASQSISSYLNWYQQKPGKAPKLLIYAASSLQSGVPSRFSGSGSGTDFTLTISSLQPEDFATYYCQQYDNLPITFGQGTRLEIKR	≥ 75%	75%	89%	~0.9 nM	~0.5 nM	~0.7 nM	–	–	–	–	–	–	–	–	–	–	–
UC-961 (ATX-P-453) (antibody, V domains shown) VH: QVQLQESGPGLVKPSQTLSLTCTVSGYAFTAYNIHWVRQAPGQGLEWMGSFDPYDGGSSYNQKFKDRLTISKDTSKNQVVLTMTNMDPVDTATYYCARGWYYFDYWGHGTLVTVSS VL: DIVMTQTPLSLPVTPGEPASISCRASKSISKYLAWYQQKPGQAPRLLIYSGSTLQSGIPPRFSGSGYGTDFTLTINNIESEDAAYYFCQQHDESPYTFGEGTKVEIK	–	75%	80%	–	–	–	–	–	–	4.69 nM	0.00591 s⁻¹	1.26e+06 M⁻¹ s⁻¹	~0.1 nM	–	–	–	~0.02 nM

More lines, now with the values ahead:

ROR-1 receptor internalization on JeKo-1 and MDA-MB-468 cells (reduction of surface antibody over 4 hours, flow cytometry) [1]	JeKo-1 (%) cellular internalization [2]	MDA-MB-468(%) cellular internalization [2]	EC50 (read off the curve) [3]	EC50 (read off the curve) [4]	IC50 (read off the curve) [5]	Kd (Mouse ROR1 - His)	koff (Mouse ROR1 - His)	kon (Mouse ROR1 - His)	Kd (Hu/Cy/Rh ROR1 - His [6])	koff (Hu/Cy/Rh ROR1 - His [6])	kon (Hu/Cy/Rh ROR1 - His [6])	EC50 (read off the curve) [7]	EC50 (read off the curve) [8]	IC50 (read off the curve) [9]	Kd (Hu/Cy/Rh ROR1 - His [10])	EC50 (read off the curve) [11]	Binder
≥ 75%	75%	89%	~3 nM	–	–	45.3 nM	0.00132 s⁻¹	29200 M⁻¹ s⁻¹	10.9 nM	0.00295 s⁻¹	270000 M⁻¹ s⁻¹	~0.3 nM	~2 nM	~3 nM	–	–	ATX-P-885 (antibody, V domains shown) VH: QVQLQQWGAGLLKPSETLSLTCAVYGGSFSGYYWSWIRQPPGKGLEWIGEINHSGSTNYNPSLKSRVTISVDTSKNQFSLKLSSVTAADTAVYYCAREGVYEDYWGQGTLVTVSS VL: EIVLTQSPATLSLSPGERATLSCRASQSVSNYLAWYQQKPGQAPRLLIYDAYNRATGIPARFSGSGSGTDFTLTISSLEPEDFAVYYCQQRSNWPLTFGQGTRLEIKR
–	–	–	–	–	–	–	–	–	–	–	–	–	–	–	2.81 nM	–	4A5 (antibody, V domains shown) VH: EVKLVESGGGLVKPGGSLKLSCAASGFTFSSYAMSWVRQIPEKRLEWVASISRGGTTYYPDSVKGRFTISRDNVRNILYLQMSSLRSEDTAMYYCGRYDYDGYYAMDYWGQGTSVTVSS VL: DIKMTQSPSSMYASLGERVTITCKASPDINSYLSWFQQKPGKSPKTLIYRANRLVDGVPSRFSGGGSGQDYSLTINSLEYEDMGIYYCLQYDEFPYTFGGGTKLEMK
